# Measurements taken from paper PMC12157425 (bioRxiv, 2025).
# Where no end group is shown, it is not given here. [ ]: non-standard residue; d: D form. pT = C[C@@H](OP(=O)(O)O)[C@H](N)C(=O)O; pS = N[C@@H](COP(=O)(O)O)C(=O)O
# Experiments:
# βarr1 = βarr1 (Homo sapiens, UniProt P49407, A12C/C125S/C140L/C150V/C242V/C251V/C269S/C59V/V387C); assay: smFRET imaging of surface-tethered βarr1–12-387-AF488-AT647N C-tail sensor; format: biochemical; settings: parent sensor, 100 μM PIP2
# 3Q βarr1 = 3Q βarr1 (Homo sapiens, UniProt P49407, C125S/C140L/C150V/C242V/C251V/C269S/C59V/K232Q/K250Q/R236Q); assay: Fluorescence polarization binding of BODIPY-PIP2 to 3Q βarr1; settings: FP with a BODIPY-derivative of PIP2
# [1] = molecular target: βarr1–12-398-AF488-AT647 (human) (UniProt P49407)
# [2] = molecular target: βarr1–12-387-AF488-AT647N (cysteine-free human β-arrestin 1 C-tail sensor with cysteines at positions 12 and 387) (human) (UniProt P49407); assay: other fluorescence titration
# [3] = molecular target: 3A βarr1 (F388A/V387C/I386A triple mutant of the βarr1–12-387 C-tail sensor) (human) (UniProt P49407); assay: single-molecule FRET
# [4] = molecular target: βarr1–12-387-AF488-AT647N (cysteine-free human β-arrestin 1 C-tail sensor with cysteines at positions 12 and 387) (human) (UniProt P49407); assay: single-molecule FRET
# [5] = molecular target: βarr1–12-387-AF488-AT647N (cysteine-free human β-arrestin 1 C-tail sensor with cysteines at positions 12 and 387) (human) (UniProt P49407); assay: single-molecule FRET; remark: listed apart in the source
Molecule,mid-FRET dwell time representing the PIP2-bound state (βarr1),binding of PIP2 to βarr1 3Q (3Q βarr1),EC50 [1],EC50 [2],EC50 [3],EC50 [4],EC50 [5]
"phosphatidylinositol 4,5-bisphosphate [PIP2]",~2 s,essentially lost binding,–,–,–,–,–
ARGR[pT]PP[pS]LGPQDE[pS]C[pT][pT]A[pS][pS][pS]LAKDTSS,–,–,0.75 µM,1.5 µM,0.4 µM,11.8 µM,11.6 µM
"ARGRTPPSLGPQDESCT[pT]A[pS][pS][pS]LAKDTSS [P56, V2Rpp-derived phosphopeptide lacking four N-terminal phosphorylation sites]",–,–,–,30 µM,–,–,–
